Data published in patent US20230176070A1.
Where a chain is given by its changes, count along the chain named.

B1: G1 (VHH)
VHH: QVQLVESGGGLVQAGGSLRLSCAAPGSTFSTNIIAWYRQPPGKQRELVAAIGGPGSTNYADSVKGRFTISRDNAKNTGYLQMKSLKPDDTAVYYCNMVTQRGNEYWGQGTQVTVSS
B2: G78 (VHH)
VHH: DVQLVESGGGLVQAGGSLRLSCTASQSILYINVMGWYRQAPGKQRELVAEIPTGGNTDYADSVKGRFTISRDNVKNTVSLQMNSLKPEDTAVYYCNVRGGVLSPYDYWGQGTQVTVSS
B3: G79 (VHH)
VHH: DVQLVESGGGLVQAGGSLRLSCATSGRTFSTYAAGWFRQRPGKEREFVATIHWNDGRTLYADSVKGRFTLSRDNAQNTVYLQMNSLKPEDTAVYYCAAYTYRIGSYDVSTSQGYDYWGQGTQVTVSS
B4: G80 (VHH)
VHH: QVQLVESGGGLVQAGASLRLSCAASRGTFSSYTMGWFRQAPGKERLFVASISRDGGTTYYADSVKGRFTISRDNAENILYLQMNSLKPEDTAVYYCAAASRHPSTWEVWGLEYYYWGQGTQVTVSS
B5: G86 (VHH)
VHH: EVQLVESGGGLVQAGDSLRLSCAASGRTFSSYTMGWFRQAPGKEREFVAGIRWSGGSTYFTNYEDSVKGRFTISKDNAKNTVFLQMNSLRPEDTAVYYCAFTGHYSTYDSPQRYDYWGQGTQVTVSS
B6: G89 (VHH)
VHH: EVQLVESGGGLVQAGGSLSLSCAASGSINSINAMGWFRQAPGKQRELVATITRGGSTNYADSVKGRFTISIDNAKNTVYLQMNSLKPEDTAVYYCNADRGTDDGWLYDYWGQGTQVTVSS
B7: G90 (VHH)
VHH: DVQLVESGGGLVQAGGSLRLSCAASGLTFSNYAMGWFRQAPGKEREFAAGITWNGGASHYADSVKGRFTISRDNAQNTVYLQMNSLKPEDTAVYYCAARLGSVAYPGLRYDYWGQGTQVTVSS
B8: G91 (VHH)
VHH: EVQLVESGGGLVQAGGSLRLSCAASGRTFSDYPMAWFRQALGKEREFLATISTSGSRTMYADSVKGRFTISRDNAKNMMYLQMNSLKPEDAAVYYCAARQGSYYSDYNRALPGEYHYWGQGTQVTVSS
B9: G93 (VHH)
VHH: QVQLVESGGGLVQPGGSLRLSCAASGSGFSSSIIGWHRQAPGKQRELVAAIGGPGSTNYADSVKGRFTISRDNAKNTAYLQMNNLKPEDSAVYYCEATTRSGREYWGQGTQVTVSS
B10: G96 (VHH)
VHH: DVQLVESGGGLVQAGGSLKLSCAAFGVTFDINTIAWYRQAPGKQREFVAHITSGGTTYYADSVKARFTMSRDSAKNTVYLQMNNLKPEDTAVYYCNVNPTWPYSGEVDYWGQGTQVTVSS
B11: G97 (VHH)
VHH: EVQLVESGGGLVQAGGSLRLSCTASRSTFRVNPAGWYRQAPGKERELVARITSGGSTNYADSVKGRFTISRDNAKNTVYLQMNSLKPEDTAVYYCNVPCYMEDGYEHDAWGQGTQVTVSS
B12: G98 (VHH)
VHH: B3 VHH with D1Q, G16D, Y99S
B13: G8 (VHH)
VHH: QVQLVESGGGLVQAGGSLRLSCAASGITSSIASMGWFRQAPGKEEEFVARIRWNTDNTYYADSVKGRFTISRDNAQNTVYLQMNRLKPEDTAVYYCVARRGWSDLLYDYRGQGTQVTVSS
B14: G12 (VHH)
VHH: B11 VHH with E1Q, T23A, V31I, P33A, T52S, C99Y, M101R, H107Y
B15: G14 (VHH)
VHH: EVQLVESGGGLVQAGGSLRLSCAASGSTFDTNPIGWYRQAPGKQRDLVAMITSGGHTNYADSVKGRFTISRDNAKNTVYLQMNSLKPEDTAVYYCTVPHYREDGYEYHFWGQGTQVTVSS
B16: G15 (VHH)
VHH: B15 VHH with E1Q, F109C
B17: G16 (VHH)
VHH: EVQLVESGGGLVQPGGSLRLSCAASGSTFSINAIGWYRQAPGKEREFVAALRWPGNIWYYADFVEGRITISRDNAKNTVYLQMNSLKPEDTAVYYCAARPENRGSYRDAATYDFWGQGTQVTVSS
B18: G19 (VHH)
VHH: B15 VHH with E1Q, D30S, P33A, I34V, G35D, K43N, M50T, T96A, H108R
B19: G20 (VHH)
VHH: DVQLVESGGGLVQAGGSLRLSCAASERTFSRYMLGWFRQAPGKEREFVGVMGWSDSDTYYGDAVKGRFTISRDNVKNTIYLQMKSLKPEDTAVYYCAASAYGSTRNHKLYEYWGQGTQVTVSS
B20: G23 (VHH)
VHH: QVQLVESGGGLVQPGGSLRLSCAASGFTFSVNTMSWVRQAPGKGREWVSGIESHGNTYYSDSVKGRFTISRDNAKNTLYLQMNSLKPEDTAVYYCATGIYGTTRNWGQGTQVTVSS
B21: G25 (VHH)
VHH: EVQLVESGGGLVQAGGSLRLSCAASGRTFSGRTFSDYPMAWFRQAPGKEREFLATISTSGSRTYYADSVKGRFTISRDNAKDTVYLQMNSLKPEDAAIYYCAARQGSYYSDYNRALPGEYDYWGQGTQVTVSS
B22: G27 (VHH)
VHH: DVQLVESGGDLVQAGGSLRLSCSASGNIFKINDMDWYRQAPGKQRELVARISSSGSTNYADSVKGRFTISRDNGKNTVYLQMNRVKPEDTAVYYCNADVQVSRNYEYEYWGQGTQVTVSS
B23: G30 (VHH)
VHH: QVQLVESGGGLVQAGGSLRLSCAASGRTINNYDMGWFRQAPGKEREFVAAITWSGRDTNYADSVKGRFTVSRDDAKNTVYLQMNTLSPEDTAVYYCASARIQFYRLVAATRTDYSYWGQGTQVTVSS
B24: G37 (VHH)
VHH: EVQLVESGGGLVQAGDSLRLSCVASGDTFTSYTVGWFRQAPGKEQEFVAGISWSGRSTDYADFVKGRATISKDIAKVSLQMNALKPEDTAVYSCAAKKVDWSSDYVTNYDYDYRGRGTQVTVSS
B25: G39 (VHH)
VHH: HVQLVESGGELVQSGSSLRLSCAASGFDLDDYAIGWFRQAPGKEREGVSCTSTSDGPTSYLDSVKGRFTFSRDNAKNTLYLQMNSLKPEDTAVYYCAAISHIFAEDAPAMGLCWDQRSAFWYWGQGTQVTVSS
B26: G41 (VHH)
VHH: DVQLVESGGGLVQAGGSLRLSCVASGHTVSNYAMAWFRQAPGKEREFVAGISWRASITYYRDSVKGRFTISRDNAKNTVYLQMSSLKPEDTAVYYCASDKTHYVSRGTSLVEYDYWGQGTQVTVSS
B27: G42 (VHH)
VHH: HVQLVESGGGFVQAGGSLRLSCEASGRTFNVYTMGWFRQAPGKEREFVGSISWNGGSTYYADSVKGRFTISRDNAKNTVYLQMNSLEPEDTAVYYCAARRQSHLRLDLSVIDAWGKGTQVTVSS
B28: G43 (VHH)
VHH: B3 VHH with D1E, F29S, A34M, N54G, D55V, R57S, L59I, Y99S, D115N
B29: G44 (VHH)
VHH: DVQLVESGGGLVQAGGSLRLSCVASGPIFSFSTGGWYRQAPGKQRELVAALTGGGNTNYADSVKGRFTISRDNAKNTVYLQMNLLKPEDTAVYYCQVMYYSGYDGYESTSWGQGTQVTVSS
B30: G45 (VHH)
VHH: EVQLVESGGGLVQPGGSLRLSCAASGSIFSINSMGWYRQAPGKQRELVAAITSGGSTNYANSVKGRFTISRNNARNTVWLQMNSLKPEDTAVYYCNADLNVVRGYSGDYHGSSDYWGQGTQVTVSS
B31: G49 (VHH)
VHH: EVQLVESGGGLVQAGGSLRLSCAASRSTFSINAAGWYRQAPGKQRELVAAISSGGSANYADSVKGRFIISRDNAKNTVYLQMNSLKPEDTAVYYCRVPYYRDDGYEYYSWGQGTQVTVSS
B32: G50 (VHH)
VHH: EVQLVESGGGLVQAGGSLRLSCAASGRTFSRYHMGWFRQAPGKERDVVAAISWSGDSTYYADSVKGRFTISKDNAKNTVYLQMDSLKPEDTAVYYCATLSGWDGDTIFPAGSWGQGTQVTVSS
B33: G51 (VHH)
VHH: B10 VHH with D1Q, F25S, V27I, D30S, A35G, G54D, G55S, M69I, Y79H, S104G

target: glutathione S-transferase [GST: P08515]; assay: indirect ELISA, GST coated
Sequence (P08515 whole entry): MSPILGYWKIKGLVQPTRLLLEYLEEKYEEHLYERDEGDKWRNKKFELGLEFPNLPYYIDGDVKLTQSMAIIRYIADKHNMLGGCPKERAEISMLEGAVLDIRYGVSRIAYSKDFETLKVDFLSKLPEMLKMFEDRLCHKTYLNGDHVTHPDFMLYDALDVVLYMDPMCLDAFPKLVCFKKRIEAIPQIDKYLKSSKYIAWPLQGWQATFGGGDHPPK

Binder	ELISA affinity (LogIC50 (oD450nm))
B1	2.93
B2	2.08
B3	2.07
B4	4.43
B5	5.54
B6	5.74
B7	5.83
B8	1.15
B9	2.16
B10	6.77
B11	3.3
B12	4.67
B13	4.66
B14	4.21
B15	5.27
B16	4.61
B17	5.68

Binder	ELISA affinity (LogIC50 (oD450nm))
B18	9
B19	2.43
B20	2.54
B21	1.57
B22	1.36
B23	4.86
B24	1.78
B25	1.65
B26	1.02
B27	2.63
B28	4.32
B29	3.06
B30	3.17
B31	5.54
B32	1.09
B33	4.45
